According to article PMC7540724:

Target: Thermus thermophilus RodA (FLAG-3C-RodA) (Thermus thermophilus) (UniProt Q5SIX3)
Experiment: crystal structure

Q: How did the stoichiometry N (PBP2 per RodA) turn out when “Thermus thermophilus PBP2 (PBP2-3C-PrtC) (enzyme)” was run?
A: 1
